Measurements: paper PMC8534323

Experiments:
[1] = molecular target: Phosphoglycerate mutase 1 (Gpm1), recombinant (C. albicans) (UniProt P82612); assay: ELISA-like microplate ligand-binding assay; fungal protein immobilised on the microplate, soluble fluorescent-labeled histones; saturation one-site binding model
[2] = molecular target: Als3 (agglutinin-like sequence protein 3), isolated from the surface of C. albicans (C. albicans (endogenous in strain ATCC 10231)) (UniProt Q59L12); assay: as above
[3] = molecular target: enolase (Eno1) (C. albicans (endogenous in strain ATCC 10231)) (UniProt P30575); assay: as above
[4] = molecular target: triosephosphate isomerase 1 (Tpi1) (C. albicans (endogenous in strain ATCC 10231)) (UniProt Q9P940); assay: SPR
[5] = molecular target: Phosphoglycerate mutase 1 (Gpm1), recombinant (C. albicans) (UniProt P82612); assay: SPR
[6] = molecular target: Als3 (agglutinin-like sequence protein 3), isolated from the surface of C. albicans (C. albicans (endogenous in strain ATCC 10231)) (UniProt Q59L12); assay: SPR
[7] = molecular target: enolase (Eno1) (C. albicans (endogenous in strain ATCC 10231)) (UniProt P30575); assay: SPR

Phosphoglycerate mutase 1 (Gpm1), recombinant (C. albicans), sequence (P82612 whole entry): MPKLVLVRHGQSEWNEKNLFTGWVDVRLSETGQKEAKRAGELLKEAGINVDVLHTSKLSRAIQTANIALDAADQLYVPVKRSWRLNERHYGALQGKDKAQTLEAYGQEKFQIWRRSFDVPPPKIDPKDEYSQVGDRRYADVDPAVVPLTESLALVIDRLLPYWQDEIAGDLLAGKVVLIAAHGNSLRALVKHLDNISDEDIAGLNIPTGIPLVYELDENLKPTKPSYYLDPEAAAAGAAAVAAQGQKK
triosephosphate isomerase 1 (Tpi1) (C. albicans (endogenous in strain ATCC 10231)), sequence (Q9P940 whole entry): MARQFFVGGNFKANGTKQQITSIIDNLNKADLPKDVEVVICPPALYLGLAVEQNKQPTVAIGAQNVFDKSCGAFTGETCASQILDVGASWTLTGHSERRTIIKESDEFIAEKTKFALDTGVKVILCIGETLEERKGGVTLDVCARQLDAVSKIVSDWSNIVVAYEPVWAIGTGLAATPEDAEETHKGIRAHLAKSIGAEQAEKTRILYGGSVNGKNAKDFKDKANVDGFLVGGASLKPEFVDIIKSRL

| Substance | Kd [2] [nM] | Kd [3] [nM] | Kd [4] [nM] | Kd [5] [nM] | Kd [6] [nM] | Kd [7] [nM] | other results |
| --- | --- | --- | --- | --- | --- | --- | --- |
| histone H3 (from UniProt P68431 1-136) (natural protein) | 23.4 | 1230 |  |  |  |  | Kd [1]: 258 nM |
| myeloperoxidase (MPO) (enzyme) |  |  | 45 | 353 | 11.6 | 78.7 |  |
| cathelicidin-derived peptide LL-37 |  |  | 68.3 | 598 | 228 | 14.6 |  |
| LL-37(7)Cit (peptide) |  |  |  |  |  |  | loss of binding against native LL-37 [5]: 75%; decrease of binding against native LL-37 [6]: 50%; decrease of binding against native LL-37 [7]: 50% |
| histone H2 (from UniProt P0C0S8 1-130) (natural protein) | 1790 | 911 |  |  |  |  |  |
| lactotransferrin (LF) (from UniProt P02788 20-710) (natural protein) |  |  |  |  | 85.9 |  |  |
